From publication PMC10397247

Assays:
Assay in all cases: two-hybrid library CCNG1;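 further: natural log of median RNA to DNA barcode read ratio; higher means stronger binding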
4H754-bA = molecular target: T1, 4H754-bA
T1 chain: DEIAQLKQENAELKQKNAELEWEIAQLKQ

4H2253-bH = molecular target: T2, 4H2253-bH
T2 chain: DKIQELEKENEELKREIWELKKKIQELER

4H2931-bH = molecular target: T3, 4H2931-bH
T3 chain: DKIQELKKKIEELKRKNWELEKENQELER

4H2859-bH = molecular target: T4, 4H2859-bH
T4 chain: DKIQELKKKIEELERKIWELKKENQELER

4H2438-bH = molecular target: T5, 4H2438-bH
T5 chain: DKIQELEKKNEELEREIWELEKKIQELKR

4H348-bH = molecular target: T6, 4H348-bH
T6 chain: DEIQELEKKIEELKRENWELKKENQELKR

4H2518-bH = molecular target: T7, 4H2518-bH
T7 chain: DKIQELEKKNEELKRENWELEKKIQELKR

4H2588-bH = molecular target: T8, 4H2588-bH
T8 chain: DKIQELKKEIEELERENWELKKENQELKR

4H3057-bH = molecular target: T9, 4H3057-bH
T9 chain: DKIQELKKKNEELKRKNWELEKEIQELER

4H4001-bN = molecular target: T10, 4H4001-bN
T10 chain: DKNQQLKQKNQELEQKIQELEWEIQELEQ

4H477-bH = molecular target: T11, 4H477-bH
T11 chain: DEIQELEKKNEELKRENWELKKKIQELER

4H730-bH = molecular target: T12, 4H730-bH
T12 chain: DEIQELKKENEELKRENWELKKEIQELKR

4H2444-bH = molecular target: T13, 4H2444-bH
T13 chain: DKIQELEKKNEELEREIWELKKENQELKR

4H2143-bH = molecular target: T14, 4H2143-bH
T14 chain: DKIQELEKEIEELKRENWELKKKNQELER

4H2585-bH = molecular target: T15, 4H2585-bH
T15 chain: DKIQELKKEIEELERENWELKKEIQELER

4H2473-bH = molecular target: T16, 4H2473-bH
T16 chain: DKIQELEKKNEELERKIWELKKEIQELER

4H932-bH = molecular target: T17, 4H932-bH
T17 chain: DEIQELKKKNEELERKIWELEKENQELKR

4H3277-bH = molecular target: T18, 4H3277-bH
T18 chain: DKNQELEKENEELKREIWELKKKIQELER

4H2915-bH = molecular target: T19, 4H2915-bH
T19 chain: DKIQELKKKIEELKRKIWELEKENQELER

4H3041-bH = molecular target: T20, 4H3041-bH
T20 chain: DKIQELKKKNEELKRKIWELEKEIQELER

4H3381-bH = molecular target: T21, 4H3381-bH
T21 chain: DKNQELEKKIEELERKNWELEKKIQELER

4H40-bH = molecular target: T22, 4H40-bH
T22 chain: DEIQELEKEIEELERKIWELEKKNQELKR

4H264-bH = molecular target: T23, 4H264-bH
T23 chain: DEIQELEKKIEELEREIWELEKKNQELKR

4H2503-bH = molecular target: T24, 4H2503-bH
T24 chain: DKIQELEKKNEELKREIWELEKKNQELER

4H2162-bH = molecular target: T25, 4H2162-bH
T25 chain: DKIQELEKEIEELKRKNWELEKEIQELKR

4H2760-bH = molecular target: T26, 4H2760-bH
T26 chain: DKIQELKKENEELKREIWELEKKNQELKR

4H2223-bH = molecular target: T27, 4H2223-bH
T27 chain: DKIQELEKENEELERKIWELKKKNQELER

4H741-bH = molecular target: T28, 4H741-bH
T28 chain: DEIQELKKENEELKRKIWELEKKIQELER

4H2839-bH = molecular target: T29, 4H2839-bH
T29 chain: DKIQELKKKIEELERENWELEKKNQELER

4H796-bH = molecular target: T30, 4H796-bH
T30 chain: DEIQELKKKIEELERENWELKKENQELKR

4H349-bH = molecular target: T31, 4H349-bH
T31 chain: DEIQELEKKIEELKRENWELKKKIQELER

4H2717-bH = molecular target: T32, 4H2717-bH
T32 chain: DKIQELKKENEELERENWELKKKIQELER

4H3364-bH = molecular target: T33, 4H3364-bH
T33 chain: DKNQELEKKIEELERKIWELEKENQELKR

4H3297-bH = molecular target: T34, 4H3297-bH
T34 chain: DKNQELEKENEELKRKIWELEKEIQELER

4H2233-bH = molecular target: T35, 4H2233-bH
T35 chain: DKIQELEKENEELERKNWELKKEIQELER

4H2692-bH = molecular target: T36, 4H2692-bH
T36 chain: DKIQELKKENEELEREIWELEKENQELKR

4H949-bH = molecular target: T37, 4H949-bH
T37 chain: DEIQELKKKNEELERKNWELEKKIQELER

4H492-bH = molecular target: T38, 4H492-bH
T38 chain: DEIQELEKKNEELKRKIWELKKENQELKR

4H319-bH = molecular target: T39, 4H319-bH
T39 chain: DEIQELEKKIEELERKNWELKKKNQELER

4H235-bH = molecular target: T40, 4H235-bH
T40 chain: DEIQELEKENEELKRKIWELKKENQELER

4H56-bH = molecular target: T41, 4H56-bH
T41 chain: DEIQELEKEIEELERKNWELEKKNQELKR

4H1393-bA = molecular target: T42, 4H1393-bA
T42 chain: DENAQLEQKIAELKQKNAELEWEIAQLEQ

4H1985-bA = molecular target: T43, 4H1985-bA
T43 chain: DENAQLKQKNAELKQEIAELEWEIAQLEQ

4H1449-bA = molecular target: T44, 4H1449-bA
T44 chain: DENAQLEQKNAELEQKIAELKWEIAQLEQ

4H1710-bA = molecular target: T45, 4H1710-bA
T45 chain: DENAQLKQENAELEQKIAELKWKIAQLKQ

4H3414-bA = molecular target: T46, 4H3414-bA
T46 chain: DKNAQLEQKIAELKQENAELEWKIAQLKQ

4H3817-bA = molecular target: T47, 4H3817-bA
T47 chain: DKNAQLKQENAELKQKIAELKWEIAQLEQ

4H906-bA = molecular target: T48, 4H906-bA
T48 chain: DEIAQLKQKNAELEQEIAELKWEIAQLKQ

4H3631-bA = molecular target: T49, 4H3631-bA
T49 chain: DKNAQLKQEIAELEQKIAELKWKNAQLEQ

4H584-bA = molecular target: T50, 4H584-bA
T50 chain: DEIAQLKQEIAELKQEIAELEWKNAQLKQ

4H570-bA = molecular target: T51, 4H570-bA
T51 chain: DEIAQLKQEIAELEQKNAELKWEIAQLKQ

4H3172-bA = molecular target: T52, 4H3172-bA
T52 chain: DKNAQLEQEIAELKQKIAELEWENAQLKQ

4H3129-bA = molecular target: T53, 4H3129-bA
T53 chain: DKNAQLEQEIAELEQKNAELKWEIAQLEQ

4H1629-bA = molecular target: T54, 4H1629-bA
T54 chain: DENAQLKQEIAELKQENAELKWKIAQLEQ

4H850-bA = molecular target: T55, 4H850-bA
T55 chain: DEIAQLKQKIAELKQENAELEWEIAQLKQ

4H619-bA = molecular target: T56, 4H619-bA
T56 chain: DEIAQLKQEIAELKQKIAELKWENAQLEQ

4H3974-bA = molecular target: T57, 4H3974-bA
T57 chain: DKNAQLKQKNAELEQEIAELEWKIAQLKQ

4H3638-bA = molecular target: T58, 4H3638-bA
T58 chain: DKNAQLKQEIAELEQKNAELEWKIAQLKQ

4H1804-bA = molecular target: T59, 4H1804-bA
T59 chain: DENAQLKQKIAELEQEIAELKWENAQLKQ

DKIQELEKEIEELKRENWELKKKNQELER [4H2143-bH]
interaction score (4H754-bA): -0.871 | interaction score (4H2253-bH): -1.13 | interaction score (4H2931-bH): 0.0986 | interaction score (4H2859-bH): -0.954 | interaction score (4H2438-bH): -0.916 | interaction score (4H348-bH): 0.059 | interaction score (4H2518-bH): 0.15 | interaction score (4H2588-bH): -0.874 | interaction score (4H3057-bH): 0.0434 | interaction score (4H4001-bN): -1.45 | interaction score (4H477-bH): -0.0383 | interaction score (4H730-bH): -0.835 | interaction score (4H2444-bH): -0.824 | interaction score (4H2143-bH): 0.693 | interaction score (4H2585-bH): -1.12 | interaction score (4H2473-bH): -0.279 | interaction score (4H932-bH): -0.164 | interaction score (4H3277-bH): -0.719 | interaction score (4H2915-bH): -0.577 | interaction score (4H3041-bH): -0.203 | interaction score (4H3381-bH): 0.106 | interaction score (4H40-bH): 1 | interaction score (4H264-bH): 0.605 | interaction score (4H2503-bH): -1.13 | interaction score (4H2162-bH): 0.12 | interaction score (4H2760-bH): -0.0706 | interaction score (4H2223-bH): -0.434 | interaction score (4H741-bH): 0.515 | interaction score (4H2839-bH): 1.24 | interaction score (4H796-bH): -1.45 | interaction score (4H349-bH): -0.148 | interaction score (4H2717-bH): -0.549 | interaction score (4H3364-bH): 0.347 | interaction score (4H3297-bH): -0.15 | interaction score (4H2233-bH): 0.334 | interaction score (4H2692-bH): -0.348 | interaction score (4H949-bH): -0.954 | interaction score (4H492-bH): -0.638 | interaction score (4H319-bH): -1.46 | interaction score (4H235-bH): -0.618 | interaction score (4H56-bH): 0.127

DENAQLEQKIAELKQKNAELEWEIAQLEQ [4H1393-bA]
interaction score (4H1393-bA): -1.08 | interaction score (4H754-bA): -1.58 | interaction score (4H1985-bA): -1.7 | interaction score (4H1449-bA): -1.31 | interaction score (4H1710-bA): -1.72 | interaction score (4H3414-bA): 0.166 | interaction score (4H3817-bA): -1.23 | interaction score (4H906-bA): -1.12 | interaction score (4H3631-bA): -0.847 | interaction score (4H584-bA): -1.22 | interaction score (4H570-bA): -0.941 | interaction score (4H3172-bA): -1.3 | interaction score (4H3129-bA): -0.0989 | interaction score (4H1629-bA): -1.57 | interaction score (4H850-bA): -0.951 | interaction score (4H619-bA): -1.63 | interaction score (4H3974-bA): -0.626 | interaction score (4H3638-bA): 1.8 | interaction score (4H1804-bA): -1.14 | interaction score (4H3297-bH): -0.857
